Results as given in paper PMC9536601, “Binding of adenovirus species C hexon to prothrombin and the influence of hexon on vector properties in vitro and in vivo” (PLoS Pathogens, 2022).
Residue numbers refer to the chain shown, from its start.

B1: bovine coagulation factor X (natural protein, UniProt P00743 41-492, looked up)
chain: ANSFLEEVKQGNLERECLEEACSLEEAREVFEDAEQTDEFWSKYKDGDQCEGHPCLNQGHCKDGIGDYTCTCAEGFEGKNCEFSTREICSLDNGGCDQFCREERSEVRCSCAHGYVLGDDSKSCVSTERFPCGKFTQGRSRRWAIHTSEDALDASELEHYDPADLSPTESSLDLLGLNRTEPSAGEDGSQVVRIVGGRDCAEGECPWQALLVNEENEGFCGGTILNEFYVLTAAHCLHQAKRFTVRVGDRNTEQEEGNEMAHEVEMTVKHSRFVKETYDFDIAVLRLKTPIRFRRNVAPACLPEKDWAEATLMTQKTGIVSGFGRTHEKGRLSSTLKMLEVPYVDRSTCKLSSSFTITPNMFCAGYDTQPEDACQGDSGGPHVTRFKDTYFVTGIVSWGEGCARKGKFGVYTKVSNFLKWIDKIMKARAGAAGSRGHSEAPATWTVPPPLPL
modifications: γ-carboxylated glutamate residues in the Gla domain (positions not given)
notes: coagulation factor X, bovine, plasma-derived; also called Bovine FX; source: bought: Haematologic Technologies, Inc. (BCX-1050), plasma-derived; pretreated with GGACK, dialyzed
B2: bovine coagulation factor X (natural protein)
chain: B1 chain
modifications: gamma-carboxylated glutamate residues in the Gla domain
notes: coagulation factor X, bovine, plasma-derived; Pretreated with 125 uM GGACK (EGRCK); written here as one entry; also called bovine FX; source: bought: Haematologic Technologies, Inc. (BCX-1050), plasma-derived
B3: mouse prothrombin (coagulation factor II) (natural protein)
chain: not shown
modifications: gamma-carboxylated glutamate residues in the Gla domain
notes: prothrombin (FII), mouse, plasma-derived; also called mouse FII
B4: mouse coagulation factor X (natural protein, UniProt O88947 41-481, looked up)
chain: ANSFFEEFKKGNLERECMEEICSYEEVREIFEDDEKTKEYWTKYKDGDQCESSPCQNQGACRDGIGGYTCTCSEGFEGKNCELFVRKLCRLDNGDCDQFCREEQNSVVCSCASGYFLGNDGKSCISTAPFPCGKITTGRRKRSVALNTSDSELDLEDALLDEDFLSPTENPIELLNLNETQPERSSDDLVRIVGGRECKDGECPWQALLINEDNEGFCGGTILNEFYILTAAHCLHQARRFKVRVGDRNTEKEEGNEMVHEVDVVIKHNKFQRDTYDYDIAVLRLKTPITFRMNVAPACLPQKDWAESTLMTQKTGIVSGFGRTHEKGRQSNILKMLEVPYVDRNTCKLSTSFSITQNMFCAGYEAKLEDACQGDSGGPHVTRFKNTYYVTGIVSWGEGCARKGKYGIYTKVTTFLKWIDRSMKARVGPTAETPRTAGPPN
modifications: γ-carboxylated glutamate residues in the Gla domain (positions not given)
notes: coagulation factor X, mouse, plasma-derived; also called Mouse FX; source: bought: Haematologic Technologies, Inc. (MCX-5050), plasma-derived; pretreated with GGACK, dialyzed
B5: mouse coagulation factor X (natural protein)
chain: B4 chain
modifications: gamma-carboxylated glutamate residues in the Gla domain
notes: coagulation factor X, mouse, plasma-derived; Pretreated with 125 uM GGACK (EGRCK); written here as one entry; also called mouse FX; source: bought: Haematologic Technologies, Inc. (MCX-5050), plasma-derived
B6: hexon of Ad5.5 (Ad5 vector, hexon HVR7 VINTDTL), on the virion (natural protein, human adenovirus type 5)
chain: ATPSMMPQWSYMHISGQDASEYLSPGLVQFARATETYFSLNNKFRNPTVAPTHDVTTDRSQRLTLRFIPVDREDTAYSYKARFTLAVGDNRVLDMASTYFDIRGVLDRGPTFKPYSGTAYNALAPKGAPNPCEWDEAATALEINLEEEDDDNEDEVDEQAEQQKTHVFGQAPYSGINITKEGIQIGVEGQTPKYADKTFQPEPQIGESQWYETEINHAAGRVLKKTTPMKPCYGSYAKPTNENGGQGILVKQQNGKLESQVEMQFFSTTEATAGNGDNLTPKVVLYSEDVDIETPDTHISYMPTIKEGNSRELMGQQSMPNRPNYIAFRDNFIGLMYYNSTGNMGVLAGQASQLNAVVDLQDRNTELSYQLLLDSIGDRTRYFSMWNQAVDSYDPDVRIIENHGTEDELPNYCFPLGGVINTDTLTKVKPKTGQENGWEKDATEFSDKNEIRVGNNFAMEINLNANLWRNFLYSNIALYLPDKLKYSPSNVKISDNPNTYDYMNKRVVAPGLVDCYINLGARWSLDYMDNVNPFNHHRNAGLRYRSMLLGNGRYVPFHIQVPQKFFAIKNLLLLPGSYTYEWNFRKDVNMVLQSSLGNDLRVDGASIKFDSICLYATFFPMAHNTASTLEAMLRNDTNDQSFNDYLSAANMLYPIPANATNVPISIPSRNWAAFRGWAFTRLKTKETPSLGSGYDPYYTYSGSIPYLDGTFYLNHTFKKVAITFDSSVSWPGNDRLLTPNEFEIKRSVDGEGYNVAQCNMTKDWFLVQMLANYNIGYQGFYIPESYKDRMYSFFRNFQPMSRQVVDDTKYKDYQQVGILHQHNNSGFVGYLAPTMREGQAYPANFPYPLIGKTAVDSITQKKFLCDRTLWRIPFSSNFMSMGALTDLGQNLLYANSAHALDMTFEVDPMDEPTLLYVLFEVFDVVRVHRPHRGVIETVYLRTPFSAGNATT
notes: hexon of human adenovirus type 5, whole as in the capsid of the virion; HVR7 segment changed; The whole virion was immobilised; source: 293 cells, virions purified by CsCl ultracentrifugation
B7: hexon of Ad5.4 (Ad5 vector, hexon HVR7 VINTATL), on the virion (natural protein, human adenovirus type 5)
chain: B6 chain with D423A
notes: as for B6
B8: hexon of Ad5.0 (E1/E3-deleted Ad5 vector with wild-type Ad5 capsid), on the virion (natural protein, human adenovirus type 5)
chain: B6 chain with D423E
notes: hexon of human adenovirus type 5, whole as in the capsid of the virion; HVR7 segment VINTETL; The whole virion was immobilised; The other capsid proteins are not written; also called VINTETL; source: 293 cells, virions purified by CsCl ultracentrifugation
B9: hexon of Ad5.6 (Ad5 vector, hexon HVR7 VIRTDTL), on the virion (natural protein, human adenovirus type 5)
chain: B6 chain with N421R
notes: as for B6

Assays:
Settings in all cases: both partners purified
[1] = target: B6; experiment: SPR; Biacore T200; about 300 to 5,000 RU of Ad virions immobilised on a CM5 chip, coagulation factors flowed over at four concentrations, 50 uL/min; 10 mM HEPES, 150 mM NaCl, 1 mM CaCl2, 0.5 mM MgCl2, 0.1% BSA, 0.05% polysorbate 20, pH 7.4; global fit to a 1:1 kinetic interaction model, double referencing
[2] = target: B9; experiment: as above
[3] = target: B8; experiment: as above
[4] = target: B7; experiment: as above
[5] = target: T1, hexon of wild-type human adenovirus type 2 (on virions) (human adenovirus 2, UniProt P03277 1-968); experiment: SPR; Biacore T200; about 300 to 5,000 RU of Ad virions immobilised on a CM5 chip, coagulation factors flowed over at four concentrations, 50 uL/min; running buffer 10 mM HEPES, 150 mM NaCl, 1 mM CaCl2, 0.5 mM MgCl2, 0.1% BSA, 0.05% polysorbate 20, pH 7.4; regeneration with 3 mM EDTA; global fit to a 1:1 kinetic interaction model, double referencing
T1 construct: hexon of human adenovirus type 2 (species C), whole hexon as it stands in the capsid of the virion; Immobilised as whole virions; also called Ad2; source: wild-type virus from ATCC, grown on 293 cells, virions purified by CsCl ultracentrifugation

[6] = target: T2, hexon of wild-type human adenovirus type 5 (on virions) (human adenovirus 5, UniProt P04133 2-952); experiment: as above
T2 construct: hexon of human adenovirus type 5 (species C), whole hexon as it stands in the capsid of the virion; Immobilised as whole virions; also called Ad5; source: wild-type virus from ATCC, grown on 293 cells, virions purified by CsCl ultracentrifugation

[7] = target: T3, hexon of the E1/E3-deleted Ad5 vector Ad5.0 (wild-type Ad5 capsid, on virions) (human adenovirus 5, UniProt P04133 2-952); experiment: as above
T3 construct: hexon of human adenovirus type 5, unchanged, as it stands in the capsid of the vector; Immobilised as whole vector virions; source: E1/E3-deleted Ad5 vector grown on 293 cells, virions purified by CsCl ultracentrifugation

[8] = target: T4, human prothrombin (coagulation factor II) (human, UniProt P00734 44-622, γ-carboxylated glutamate residues in the Gla domain (positions not given)); experiment: SPR; Biacore T200; about 300 to 5,000 RU of Ad virions immobilised on a CM5 chip, coagulation factors flowed over at four concentrations, 50 uL/min; 10 mM HEPES, 150 mM NaCl, 1 mM CaCl2, 0.5 mM MgCl2, 0.1% BSA, 0.05% polysorbate 20, pH 7.4; global fit to a 1:1 kinetic interaction model, double referencing
T4 construct: prothrombin (FII), human, plasma-derived; also called Human FII; FII; source: bought: Haematologic Technologies, Inc. (HCP-0010), plasma-derived; dialyzed

| Binder | koff [5] | kon [5] | koff [6] | kon [6] | Kd [7] | koff [7] | kon [7] | Kd [8] | other results |
| --- | --- | --- | --- | --- | --- | --- | --- | --- | --- |
| B1 |  |  |  |  |  |  |  |  | Kd [1]: 438 nM; Kd [2]: 1620 nM; Kd [3]: 270 nM; Kd [4]: 540 nM |
| B2 | 0.0142 s⁻¹ | 194000 M⁻¹ s⁻¹ | 0.115 s⁻¹ | 410000 M⁻¹ s⁻¹ | 270 nM | 0.0711 s⁻¹ | 262000 M⁻¹ s⁻¹ |  | Kd [6]: 280 nM |
| B3 | 0.000393 s⁻¹ | 69700 M⁻¹ s⁻¹ | 0.0518 s⁻¹ | 24500 M⁻¹ s⁻¹ | 2000 nM | 0.0361 s⁻¹ | 18000 M⁻¹ s⁻¹ |  | Kd [5]: 5.6 nM; Kd [6]: 2100 nM |
| B4 |  |  |  |  |  |  |  |  | Kd [1]: 2.5 nM; Kd [2]: 0.37 nM; Kd [3]: 0.32 nM; Kd [4]: 1.9 nM |
| B5 | 0.00018 s⁻¹ | 238000 M⁻¹ s⁻¹ | 8.4e-05 s⁻¹ | 242000 M⁻¹ s⁻¹ | 0.32 nM | 8.61e-05 s⁻¹ | 266000 M⁻¹ s⁻¹ |  |  |
| B6 |  |  |  |  |  |  |  | 233 nM |  |
| B7 |  |  |  |  |  |  |  | 266 nM |  |
| B8 |  |  |  |  |  |  |  | 35 nM |  |
| B9 |  |  |  |  |  |  |  | 130 nM |  |
